From patent publication US20030211587A1 (University of Texas, published 2003) come the findings set out here.

The data set deals with the molecule itself. The data set can be described thus: native gel electrophoresis of purified His-tagged keptin (self-association). On the procedure:
Analysis of His-tagged keptin recombinant protein. Crude proteins were extracted from E. Coli transformed with a bacterial expression vector encoding a secreted form of keptin tagged with 10× histidine residues at its N-terminus. The extracts were affinity purified with nickel resins and subjected to SDS-PAGE analysis under denatured conditions. […] The purified protein was also analyzed for its biochemical properties by native gel electrophoresis. Both keptin dimers and monomers were detected in the native gel. Leptin (MW: 14 kDa) was used as a reference for a monomer protein with similar molecular weight to His-Keptin (11.4 kDa).

B1: His-tagged keptin recombinant protein (human mature keptin with N-terminal 10x histidine, from pET-hKeptin in E. coli) (other, UniProt P60985 23-99, looked up)
chain: ATLGGPEEESTIENYASRPEAFNTPFLNIDKLRSAFKADEFLNWHALFESIKRKLPFLNWDAFPKLKGLRSATPDAQ
notes: mature; also called His-keptin; His-Keptin; not shown: N-terminal 10x histidine tag encoded by vector pET-16b
As for B1, the binding result is on record as “binds”.
